Drawing on patent publication US20170114420, “[…] WITH BINDING AFFINITY TO NOROVIRUS” (North Carolina State University, published 2017), this text covers binding result, Kd and binding signal for six molecules.

For data set [1], the target named is Norovirus GI.1 (Norwalk) VLP, capsid protein VP1 (Norwalk virus (Norovirus GI.1), UniProt Q83884 Q83884:1-530). The data set is described as follows: ELONA; 1 uM aptamer, RT; <2 is negative. The conditions noted are these: label: 5' biotin.
Data set [2] concerns the target T1, Norovirus GII.2 (Snow Mountain virus) VLP, capsid protein VP1 (Snow Mountain virus (Norovirus GII.2), UniProt Q80RD6 Q80RD6:1-542). The experiment in a line: ELONA; ELASA, RT, 3 ug/ml VLP; T/N 12.9 at 1 uM (Table 5). The settings on record: chain copies: 180, label: 5' biotin.
For data set [3], the target named is T1, Norovirus GII.2 (Snow Mountain virus) …. The data set is described as follows: ELONA; ELASA, RT, 3 ug/ml VLP; T/N 18.1 at 1 uM (Table 5). The conditions noted are these: chain copies: 180, label: 5' biotin.
Data set [4] has the same target. The data set is described as follows: ELONA. The conditions noted are these: chain copies: 180.
Data set [5] shares this target. The experiment in a line: ELONA; ELASA, RT, 3 ug/ml VLP; T/N 4.1 at 1 uM (Table 5). The settings on record: chain copies: 180, label: 5' biotin.
Data set [6] has the same target. The experiment in a line: ELONA; ELASA, RT, 3 ug/ml VLP; T/N 12.4 at 1 uM (Table 5). The conditions noted are these: chain copies: 180, label: 5' biotin.

B1: SMV-19 (ssDNA)
DNA: AGTATACGTATTACCTGCAGCCACCAGTGTGTTGAGGTTTGAGCACACTGATAGAGTGTCACGATATCTCGGAGATCTTGC
As to B1, the binding result in data set [1] is recorded as “binds”. Besides, the Kd in data set [2] is roughly 191 nM.

B2: SMV-21 (ssDNA)
DNA: AGTATACGTATTACCTGCAGCCCATGTTTTGTAGGTGTAATAGGTCATGTTAGGGTTTCTGCGATATCTCGGAGATCTTGC
Molecule B2 displayed a Kd in data set [3] of roughly 101 nM.

B3: M1 (ssDNA)
DNA: AGTATACGTATTACCTGCAGCTGTTTATGGGGATAAACGTATCTAATTCGTGTACTAATCACGATATCTCGGAGATCTTGC
As for B3, the binding signal in data set [4] stood at 10.7 VLP/no VLP ratio.

B4: M6-2 (ssDNA)
DNA: AGTATACGTATTACCTGCAGCTGGGAAGAGGTCCGGTAAATGCAGGGTCAGCCCGGAGAGCGATATCTCGGAGATCTTGC
In data set [4], B4 gave a binding signal of 12 VLP/no VLP ratio.

B5: SMV-26 (ssDNA)
DNA: AGTATACGTATTACCTGCAGCTGACCGAGTGTCTGGTCATTTTCGATGTCTGTTGTTAGGCCGATATCTCGGAGATCTTGC
On to B5, for which the Kd in data set [5] was roughly 281 nM.

B6: SMV-25 (ssDNA)
DNA: AGTATACGTATTACCTGCAGCCATCTGTGTGAAGACTATATGGCGCTCACATATTTCTTTCCGATATCTCGGAGATCTTGC
Take B6: the Kd in data set [6] was roughly 232 nM.

As usually defined, the Kd is the concentration at which binding is half-saturated. Higher therefore signals lower affinity.
